“And” between values parts separate entries of the source, which are not always exact repeats. Equal values may be shown once. Read-outs that look alike come from different tables or passages of the source. Blank lines part the entries; values can stand above or below the molecule they belong to. Where a SMILES comes first, the peptide text is derived from it. Bridges are numbered along the chain shown (N, C = ends). Where no end group is shown, it is not given here. Side-chain parts run from the residue outwards. [ ]: non-standard residue; d: D form. Dap = NC[C@H](N)C(=O)O
Tests used:
human ADO [1] = molecular target: T1, human ADO (Homo sapiens, UniProt Q96SZ5); assay: SPR single-cycle kinetic (SCK) binding of cyclic peptides to ADO; conditions: 1:1 binding model, 4 °C, geometric mean of a minimum of three independent measurements (n = 3) with standard error
T1 construct: Full-length human ADO (Uniprot ID: Q96SZ5) was cloned; made in house; host or cells: E. coli Rosetta2(DE3)
T1 sequence (Q96SZ5 1-270): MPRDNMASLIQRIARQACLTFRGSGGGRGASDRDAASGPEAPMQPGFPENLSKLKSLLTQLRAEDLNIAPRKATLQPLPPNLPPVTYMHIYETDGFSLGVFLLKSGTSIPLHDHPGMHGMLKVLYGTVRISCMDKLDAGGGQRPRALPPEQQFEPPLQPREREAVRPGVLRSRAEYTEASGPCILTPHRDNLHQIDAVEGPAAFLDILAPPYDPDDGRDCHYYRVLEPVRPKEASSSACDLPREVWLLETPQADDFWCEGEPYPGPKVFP
From the text: After six cycles, clear enrichment of several CPs was observed by next-generation sequencing. The most enriched CPs (CP1-8, numbered according to their percentage enrichment in the final selection round) were selected for subsequent analysis (Table 1). CP1, 5, 6 and 7 are related in sequence, while CP2, 3, 4, and 8 are unique compositions (Fig. 1b). These CPs were subsequently produced by solid-phase peptide synthesis (SPPS) and analysed by surface plasmon resonance (SPR) using single cycle kinetic (SCK) analysis to confirm and quantify binding to ADO. ADO could interact with each CP to varying degrees (Supplementary Fig. 4, Table 1, Fig. 1dleft).
SPR measurements were made using a Biacore T200 (Cytiva) instrument and data were analysed using the Biacore Insight Evaluation Software. Biotinylated-ADO was immobilised on a Biotin CAP chip (Cytiva) with a target density of ∼2500–3000 RU and peptide/protein substrates were injected over the chip. Experiments were conducted at 4 °C using both multi-cycle (fit using the equilibrium steady state affinity 1:1 binding model) and single-cycle kinetics mode (fit using a 1:1 binding model). A buffer comprising 20 mM HEPES pH 7.5, 500 mM NaCl, 10 mM DTT, and 0.1% (v/v) tween-20 was used as the running buffer at a flow rate of 50 μL/minute.

human ADO [2] = molecular target: T1, human ADO; assay: ADO activity inhibition assay (RGS5_2-15 oxidation monitored by LCMS): single-dose and IC50; type: biochemical
Protocol: We next tested the ability of the CPs to inhibit ADO activity. ADO activity was measured with and without 10 μM of each CP using an established stopped assay in which the oxidation of a representative substrate (RGS5_2-15; a synthetic peptide corresponding to the methionine excised N-terminus of RGS5, residues 2 to 15) was monitored by liquid chromatography coupled mass spectrometry (LCMS)[7],[35],[36].
The enzymatic activity of ADO was examined by incubating between 0–1000 μM peptide substrates with 0.1 μM ADO in a bench-top thermomixer at 37 °C for 45 seconds. Otherwise stated, the reaction buffer contained 50 mM Tris pH 7.5, 50 mM NaCl, and 5 mM TCEP. The reactions were quenched by mixing the sample 1:10 with 1% formic acid (v/v).
Peptide samples were injected onto a Chromolith® RP-18 Endcapped HPLC Columns (100–2 mm; Merck), heated to 40 °C and eluted at 0.3 ml/min using a gradient of 95% deionised water supplemented with 0.1% (v/v) formic acid to 95% acetonitrile. Oxidation was monitored by an ultra-high-performance liquid chromatography (UHPLC) mass spectrometry (MS) using ExionLC AD (Sciex) and SelexION (Sciex) mass spectrometer operated in a positive electrospray time-of-flight ( + ESI-TOF) mode. Instrument parameters, data acquisition and data processing were controlled by Analyst software (Sciex). The peptide data processing was performed using Skyline software. Turnover was quantified by comparing the areas underneath the product and substrate ions extracted from the total ion current chromatogram. All figures and parameters were generated using GraphPad Prism 9.

[3] = molecular target: ADO-D206N, biotinylated (pQE80L-Navi-ADO) (human) (UniProt Q96SZ5); assay: SPR; single-cycle kinetics (SCK), 1:1 binding model; biotinylated ADO or variant immobilised on a Biotin CAP chip, peptide injected at 25.6, 64, 160, 400, 1000 nM; 4 °C; 20 mM HEPES pH 7.5, 500 mM NaCl, 10 mM DTT, 0.1% (v/v) tween-20; 50 μL/minute
[4] = molecular target: 2-aminoethanethiol dioxygenase (ADO), wild type, biotinylated (pQE80L-Navi-ADO) (human); assay: SPR; multi-cycle, equilibrium steady state affinity 1:1 binding model; biotinylated ADO or variant immobilised on a Biotin CAP chip (~2500-3000 RU), peptide injected; 4 °C; 20 mM HEPES pH 7.5, 500 mM NaCl, 10 mM DTT, 0.1% (v/v) tween-20; 50 μL/minute
[5] = molecular target: T2, 2-aminoethanethiol dioxygenase (ADO), full-length human, N-terminally His-tagged and biotinylated … (human, UniProt Q96SZ5 1-270, biotin (biotinylated during expression, 0.2 mM biotin added)); assay: SPR; single-cycle kinetics (1:1 binding model); biotinylated ADO immobilised on a Biotin CAP chip (~2500-3000 RU), cyclic peptide injected; Biacore T200, 4 °C; 20 mM HEPES pH 7.5, 500 mM NaCl, 10 mM DTT, 0.1% tween-20; 50 µL/minute; each cell is one of three independent measurements; conditions: both partners purified
T2 construct: 2-aminoethanethiol dioxygenase (ADO), human, UniProt Q96SZ5, full length; Immobilised through its biotin on a Biotin CAP chip for SPR; also called wild type ADO; Biotinylated-ADO; source: E. coli Rosetta2(DE3), purified (Ni-NTA, SEC); not shown: biotinylation tag (from the vector pQE80L-Navi), N-terminal, kept
T2 sequence (looked up): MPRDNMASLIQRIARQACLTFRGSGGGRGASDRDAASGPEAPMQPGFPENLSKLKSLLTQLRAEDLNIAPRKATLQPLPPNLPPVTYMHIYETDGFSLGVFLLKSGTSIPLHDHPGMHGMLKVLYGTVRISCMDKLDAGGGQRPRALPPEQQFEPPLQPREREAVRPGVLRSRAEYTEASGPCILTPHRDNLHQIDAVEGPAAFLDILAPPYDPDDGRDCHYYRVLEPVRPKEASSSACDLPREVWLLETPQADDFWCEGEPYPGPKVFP

[6] = molecular target: T2, 2-aminoethanethiol dioxygenase (ADO), …; assay: SPR; single-cycle kinetics (1:1 binding model); biotinylated ADO immobilised on a Biotin CAP chip (~2500-3000 RU), cyclic peptide injected; Biacore T200, 4 °C; 20 mM HEPES pH 7.5, 500 mM NaCl, 10 mM DTT, 0.1% tween-20; 50 µL/minute; each cell is one of three independent measurements; conditions: both partners purified; remark: listed apart in the source
Summary of the method: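 Biotinylated full-length human ADO was made in E. coli with a His tag, then purified by nickel affinity and gel filtration. It was captured on a Biotin CAP chip at about 2500–3000 RU in a Biacore T200, and cyclic peptides were flowed over it. The run was at 4 °C in HEPES pH 7.5 buffer with 500 mM NaCl, DTT and tween-20, at 50 µL/minute. Kd came from a 1:1 binding fit of single-cycle kinetic sensorgrams, with three independent measurements.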

[7] = molecular target: ADO with a change in F101 (ADO-F101) (human) (UniProt Q96SZ5); assay: SPR; biotinylated ADO (wild type or mutant) immobilised on a Biotin CAP chip, substrate peptides injected; 4 °C; 20 mM HEPES pH 7.5, 500 mM NaCl, 10 mM DTT, 0.1% tween-20; multi-cycle or single-cycle mode not given
[8] = molecular target: ADO with a change in Y212 (ADO-Y212) (human) (UniProt Q96SZ5); assay: as above
[9] = molecular target: T3, 2-aminoethanethiol dioxygenase (ADO), full-length human, N-terminally His-tagged and biotinylated … (human, UniProt Q96SZ5 1-270, biotin (biotinylated during expression, 0.2 mM biotin added)); assay: SPR; single cycle kinetic (SCK) analysis, 1:1 binding model; biotinylated ADO immobilised on a Biotin CAP chip (~2500-3000 RU), cyclic peptides injected; 4 °C; 20 mM HEPES pH 7.5, 500 mM NaCl, 10 mM DTT, 0.1% tween-20; 50 μL/minute; conditions: both partners purified
T3 construct: 2-aminoethanethiol dioxygenase (ADO), human, UniProt Q96SZ5, full length; Construct used for RaPID screening and all SPR experiments; No tag cleavage step is described in its purification; also called wild type ADO; biotinylated ADO; source: E. coli Rosetta2(DE3), purified (Ni-NTA, SEC); not shown: biotinylation tag (from the vector pQE80L-Navi), N-terminal, kept
T3 sequence (looked up): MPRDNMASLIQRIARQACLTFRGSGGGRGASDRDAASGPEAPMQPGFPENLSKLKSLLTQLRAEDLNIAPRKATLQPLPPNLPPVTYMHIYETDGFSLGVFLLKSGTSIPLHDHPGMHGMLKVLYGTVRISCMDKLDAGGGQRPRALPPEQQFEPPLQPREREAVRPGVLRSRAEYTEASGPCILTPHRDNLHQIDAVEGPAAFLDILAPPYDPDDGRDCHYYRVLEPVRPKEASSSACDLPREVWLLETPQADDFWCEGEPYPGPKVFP

[10] = RGS5_2-15 substrate, LCMS, 37 °C, average of three independent experiments (n = 3), standard error, read-out: IC50

Molecule: CC[C@H](C)[C@@H]1NC(=O)[C@H]([C@@H](C)O)NC(=O)CNC(=O)[C@H](CC(C)C)NC(=O)[C@H](C(C)C)NC(=O)[C@H](Cc2ccc(O)cc2)NC(=O)[C@H](Cc2ccc(O)cc2)NC(=O)[C@H](Cc2ccc(O)cc2)NC(=O)CSC[C@@H](C(N)=O)NC(=O)[C@H](Cc2ccccc2)NC(=O)[C@H](CCCNC(=N)N)NC(=O)[C@H](Cc2ccc(O)cc2)NC(=O)[C@H](CCCNC(=N)N)NC(=O)[C@H](CCCCN)NC(=O)[C@H](C(C)C)NC(=O)[C@H](CC(C)C)NC1=O [CP4] ({CH2CO}-YYYVLGTILVKRYRFC-NH2; thioether N-16)
- Kd (human ADO [1]): 1300 ± 140 nM
- IC50 (human ADO [2]; [10]): > 50000 nM

Molecule: CC[C@H](C)[C@@H]1NC(=O)[C@H](Cc2ccc(O)cc2)NC(=O)CSC[C@@H](C(N)=O)NC(=O)[C@H](CCC(N)=O)NC(=O)[C@H](CCCNC(=N)N)NC(=O)[C@H](Cc2c[nH]cn2)NC(=O)[C@H](CO)NC(=O)CNC(=O)[C@H](CC(C)C)NC(=O)[C@H](Cc2c[nH]c3ccccc23)NC(=O)[C@H](CO)NC(=O)[C@H]([C@@H](C)O)NC(=O)[C@H](CCCCN)NC(=O)[C@H](C(C)C)NC1=O [CP6-F6S] ({CH2CO}-YIVKTSWLGSHRQC-NH2; thioether N-14)
- IC50 (human ADO [2]; as given in the legend of Fig. 2c (concentration of CP added), read-out: half-maximal inhibitory concentration (IC50)): 200 nM

B1: Cyclic peptide CP6 (peptide)
peptide: {CH2CO}-YIVKTFWLGSHRQC-NH2
modifications: thioether N-14
SMILES: CC[C@H](C)[C@@H]1NC(=O)[C@H](Cc2ccc(O)cc2)NC(=O)CSC[C@@H](C(N)=O)NC(=O)[C@H](CCC(N)=O)NC(=O)[C@H](CCCNC(=N)N)NC(=O)[C@H](Cc2c[nH]cn2)NC(=O)[C@H](CO)NC(=O)CNC(=O)[C@H](CC(C)C)NC(=O)[C@H](Cc2c[nH]c3ccccc23)NC(=O)[C@H](Cc2ccccc2)NC(=O)[C@H]([C@@H](C)O)NC(=O)[C@H](CCCCN)NC(=O)[C@H](C(C)C)NC1=O
notes: selected by RaPID mRNA display against ADO; source: synthetic peptide (SPPS)
- Kd [5]: 28.9 nM and 28.6 nM and 31.2 nM
- Kd [6]: 50.9 nM and 50.4 nM and 50.6 nM

B2: CP6-K4A (peptide)
peptide: {CH2CO}-YIVATFWLGSHRQC
modifications: thioether N-14
notes: the substitution K4A is to be applied to them; Single amino acid substituent of CP6; source: synthetic peptide
- Kd [5]: 429 nM and 397 nM and 428 nM

Molecule: {CH2CO}-YIVKTFW[Dap]([Lys-Ser])GSHRQC (thioether N-14) [CP6-L8d-Lys-Ser]
- Kd [9]: 490 nM

Molecule: {CH2CO}-YIVKTFW[Dap]([Gly-Ser])GSHRQC (thioether N-14) [CP6-L8d-Gly-Ser]
- Kd [9]: 150 nM

More lines, now with the values ahead:

- KD (human ADO [1]): non-specific binding
- IC50 (human ADO [2]; [10]): 9920 ± 290 nM
Molecule: CC(C)C[C@@H]1NC(=O)[C@H](Cc2ccc(O)cc2)NC(=O)[C@H](CC(C)C)NC(=O)[C@H]([C@@H](C)O)NC(=O)[C@H](C(C)C)NC(=O)[C@H](CC(C)C)NC(=O)[C@H](CC(C)C)NC(=O)[C@H](Cc2ccc(O)cc2)NC(=O)CSC[C@@H](C(N)=O)NC(=O)[C@H](CO)NC(=O)[C@H](CCCNC(=N)N)NC(=O)[C@H](Cc2c[nH]cn2)NC(=O)[C@H]([C@@H](C)O)NC(=O)CNC1=O [CP7] ({CH2CO}-YLLVTLYLGTHRSC-NH2; thioether N-14)

- Kd [3]: 150 nM
- Kd [4]: 640 nM
Molecule: RGS5_(2-15), synthetic peptide corresponding to the methionine excised N-terminus of RGS5, residues 2 to 15 (from UniProt O15539 2-15)

- Kd [3]: 70 nM
- Kd [4]: 460 nM
Molecule: IL32_(2-15), synthetic peptide corresponding to the methionine excised N-terminus of IL32, residues 2-15 (from UniProt P24001 2-15)

- fold increase in KD relative to wild type ADO [7]: < 80 fold
- fold increase in KD relative to wild type ADO [8]: < 113 fold
Molecule: CKGLAALPHSCLER

- fold increase in KD relative to wild type ADO [7]: < 80 fold
- fold increase in KD relative to wild type ADO [8]: < 113 fold
Molecule: CFPKVLSDDMKKLK

- Kd [9]: 79 nM
Molecule: {CH2CO}-YIVKTFW[Dap]([Phe-Ser])GSHRQC (thioether N-14) [CP6-L8d-Phe-Ser]
